The target of assay [1] is T1, human PD-1 on engineered CHO-S cells (W305-CHO-S.hPro1.C6) (human, UniProt Q15116 25-288).
T1 construct: whole, on cells; also called human PD-1 engineered cells; PD-1+ cells
As to the kind of experiment: FACS competition: antibody titrated against human PD-L1 binding to PD-1; falling curve, half-maximal value labelled EC50 on the sheet. As to the method:
In order to test whether the bispecific antibodies could block hPD-L1 binding to hPD-1 protein, a competitive FACS was conducted. […] Plates were incubated at 4° C. for 1 hour. After wash, the binding of W315-hPro1.ECD.mFc to cell expressive human PD-1 was detected by FITC-labeled goat anti-mouse antibody (abcam 98716 1:125). The competition binding of antibodies to the cells was tested by flow cytometry and the mean fluorescence intensity (MFI) was analyzed by FlowJo.

The target in assay [2] is T1, human PD-1 on engineered CHO-S cells …. As to the kind of experiment: FACS on human PD-1 engineered cells. As to the method:
(§1) Engineered human PD-1 expressing cells W305-CHO-S.hPro1.C6 were seeded at 1×10⁵ cells/well in U-bottom 96-well plates (COSTAR 3799). Antibodies with 3.16-fold titration in 1% BSA DPBS from 200 nM to 0.002 nM were added to the cells. The plates were incubated at 4° C. for 1 hour. After wash, […] 1:125 diluted PE-labeled goat anti-human antibody (Jackson 109-115-098) was added to each well and the plates were incubated at 4° C. for 1 hour. The binding of the antibodies onto the cells was tested by flow cytometry and the mean fluorescence intensity (MFI) was analyzed by FlowJo.

Assay [3] has the same target. As to the kind of experiment: FACS on human PD-1 engineered cells. The protocol: as §1
This is another data set of the same source.

The target in assay [4] is T2, human CTLA-4 on engineered 293F cells (W316-293F.hPro1.FL) (human, UniProt P16410 36-223).
T2 construct: whole, on cells; also called human CTLA-4 engineered cells; CTLA-4+ cells
As to the kind of experiment: FACS on human CTLA-4 engineered cells. The protocol:
(§2) 3.16-fold titrated Abs with 1% BSA DPBS from 200 nM to 0.002 nM were added to the cells. Plates were incubated at 4° C. for 1 hour. After wash, […] 1:150 diluted PE-labeled goat anti-human antibody (Jackson 109-115-098) was added to each well and the plates were incubated at 4° C. for 1 hour. The binding of the antibodies onto the cells was tested by flow cytometry and the mean fluorescence intensity (MFI) was analyzed by FlowJo.

Assay [5] concerns the target T2, human CTLA-4 on engineered 293F cells …. As to the kind of experiment: FACS binding to human CTLA-4 engineered cells. The protocol: as §2
(In general: Flow cytometry measures light scatter and fluorescence of single cells or particles in a stream.)

Assay [6] has as its target T1, human PD-1 on engineered CHO-S cells …. As to the kind of experiment: FACS binding to human PD-1 engineered cells. As to the method: as §1

In general, IC50 refers to the midpoint of a concentration-inhibition curve. A lower IC50 goes with greater potency in that assay. Usually EC50 stands for the concentration giving half of the maximal effect. The low end stands for an effect from little substance, the high end for a need for much substance.

T1 sequence (Q15116 25-288, change not shown): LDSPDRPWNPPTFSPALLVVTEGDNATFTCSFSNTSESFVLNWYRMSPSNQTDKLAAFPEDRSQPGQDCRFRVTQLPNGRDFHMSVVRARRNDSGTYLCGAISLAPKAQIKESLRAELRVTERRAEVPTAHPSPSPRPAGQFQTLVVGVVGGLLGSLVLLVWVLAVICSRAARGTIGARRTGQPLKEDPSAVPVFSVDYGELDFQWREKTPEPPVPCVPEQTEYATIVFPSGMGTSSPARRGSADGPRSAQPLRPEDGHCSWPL
T2 sequence (P16410 36-223, change not shown): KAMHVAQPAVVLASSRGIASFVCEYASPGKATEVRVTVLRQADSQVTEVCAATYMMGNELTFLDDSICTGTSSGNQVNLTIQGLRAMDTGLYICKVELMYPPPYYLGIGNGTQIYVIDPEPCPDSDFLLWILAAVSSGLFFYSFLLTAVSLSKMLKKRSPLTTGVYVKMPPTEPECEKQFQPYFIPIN

B1: U6T1.G19R.IgG4, bispecific anti-PD-1 x CTLA-4 (bispecific antibody)
heavy: EVQLLESGGGLVQPGGSLRLSCAASGFTFSSHAMSWVRQAPGKGLEWVSTITGGGGSIYYADSVKGRFTISRDNSKNTLYLQMNSLRAEDTAVYYCAKNRAGEGYFDYWGQGTLVTVLEDLKNVFPPEVAVFEPSEAEISHTQKATLVCLATGFYPDHVELSWWVNGKEVHSGVCTDPQPLKEQPALQDSRYALSSRLRVSATFWQNPRNHFRCQVQFYGLSENDEWTQDRAKPVTQIVSAEAWGRYGPPCPPCPAPEFLGGPSVFLFPPKPKDTLMISRTPEVTCVVVDVSQEDPEVQFNWYVDGVEVHNAKTKPREEQFNSTYRVVSVLTVLHQDWLNGKEYKCKVSNKGLPSSIEKTISKAKGQPREPQVYTLPPSQEEMTKNQVSLTCLVKGFYPSDIAVEWESNGQPENNYKTTPPVLDSDGSFFLYSRLTVDKSRWQEGNVFSCSVMHEALHNHYTQKSLSLSLGGGGGSGGGGSGGGGSGGGGSQVQLVESGGGVVQPGRSLRLSCAASGFTFSSYTMHWVRQAPGKGLEWVTFISYDGNNKYYADSVKGRFTISRDNSKNTLYLQMNSLRAEDTAIYYCARTGWLGPFDYWGQGTLVTVSSASTKGPSVFPLAPCSRSTSESTAALGCLVKDYFPEPVTVSWNSGALTSGVHTFPAVLQSSGLYSLSSVVTVPSSSLGTKTYTCNVDHKPSNTKVDKRV
light 1: SYELTQPLSVSVALGQTARITCGGDNIGNKDVHWYQQKPGQAPVLVIYRDSNRPSGIPEGFSGSNSGNTATLTISRAQAGDEADYYCQVWDSIWVFGGGTKLTVLPDIQNPDPAVYQLRDSKSSDKSVCLFTDFDSQTQVSQSKDSDVYITDKCVLDMRSMDFKSNSAVAWSQKSDFACANAFQNSIIPEDTFFPSPESS
light 2: not shown
notes: Symmetric tetravalent format G19R; also called U6T1 in G19R format
B1 returned an IC50 in assay [1] of 1.87 nM. In assay [2], this molecule registered a concentration for a half-maximal effect (EC50) of 1.74 nM.

B2: U6T1.G25.IgG4, bispecific anti-PD-1 x CTLA-4 (bispecific antibody)
heavy: not shown
light 1: SYELTQPLSVSVALGQTARITCGGDNIGNKDVHWYQQKPGQAPVLVIYRDSNRPSGIPEGFSGSNSGNTATLTISRAQAGDEADYYCQVWDSIWVFGGGTKLTVLPDIQNPDPAVYQLRDSKSSDKSVCLFTDFDSQTQVSQSKDSDVYITDKCVLDMRSMDFKSNSAVAWSQKSDFACANAFQNSIIPEDTFFPSPESS
light 2: not shown
notes: Symmetric tetravalent format G25; also called U6T1 in G25 format
Regarding B2, the IC50 in assay [1] was found to be 1.96 nM. This molecule also showed a 50% effective concentration (EC50) in assay [2] of 1.65 nM.

B3: U6T5.G25R.IgG4, bispecific anti-PD-1 x CTLA-4 (bispecific antibody)
heavy: EVQLLESGGGLVQPGGSLRLSCAASGFTFSSHAMSWVRQAPGKGLEWVSTITGGGGSIYYADSVKGRFTISRDNSKNTLYLQMNSLRAEDTAVYYCAKNRAGEGYFDYWGQGTLVTVSSASTKGPSVFPLAPCSRSTSESTAALGCLVKDYFPEPVTVSWNSGALTSGVHTFPAVLQSSGLYSLSSVVTVPSSSLGTKTYTCNVDHKPSNTKVDKRVGGGGSGGGGSQVQLVQSGAEVKKPGSSVKVSCKASGYTFTNYFMNWVRQAPGQGLEWMGRVDPEQGRADYAEKFKKRVTITADKSTSTAYMELSSLRSEDTAVYYCARRAMDNYGFAYWGQGTLVTVLEDLKNVFPPEVAVFEPSEAEISHTQKATLVCLATGFYPDHVELSWWVNGKEVHSGVCTDPQPLKEQPALQDSRYALSSRLRVSATFWQNPRNHFRCQVQFYGLSENDEWTQDRAKPVTQIVSAEAWGRYGPPCPPCPAPEFLGGPSVFLFPPKPKDTLMISRTPEVTCVVVDVSQEDPEVQFNWYVDGVEVHNAKTKPREEQFNSTYRVVSVLTVLHQDWLNGKEYKCKVSNKGLPSSIEKTISKAKGQPREPQVYTLPPSQEEMTKNQVSLTCLVKGFYPSDIAVEWESNGQPENNYKTTPPVLDSDGSFFLYSRLTVDKSRWQEGNVFSCSVMHEALHNHYTQKSLSLSLGK
light 1: SYELTQPLSVSVALGQTARITCGGDNIGNKDVHWYQQKPGQAPVLVIYRDSNRPSGIPEGFSGSNSGNTATLTISRAQAGDEADYYCQVWDSIWVFGGGTKLTVLGQPKAAPSVTLFPPSSEELQANKATLVCLISDFYPGAVTVAWKADSSPVKAGVETTTPSKQSNNKYAASSYLSLTPEQWKSHKSYSCQVTHEGSTVEKTVAPTECS
light 2: EIVLTQSPDFQSVTPKEKVTITCSANSALSYMYWYQQKPDQSPKLWVHGTSNLASGVPSRFSGSGSGTDFTLTINSLEAEDAATYYCHHWSNTQWTFGGGTKVEIKPDIQNPDPAVYQLRDSKSSDKSVCLFTDFDSQTQVSQSKDSDVYITDKCVLDMRSMDFKSNSAVAWSQKSDFACANAFQNSIIPEDTFFPSPESS
notes: also called U6T5.G25R.uIgG4; U6T5 in G25R format
Turning to B3, the EC50 in assay [3] was 1.56 nM; in assay [4], 8.36 nM.

B4: T4U6.G26R.IgG4, bispecific anti-CTLA-4 x PD-1 (bispecific antibody)
chain: QVQLQESGPGLVKPSETLSLTCSVTYHTITSGYDWTWIRKPPGKGMEWIGYISYSGNTNYNPSLKSRVTISRDTSKNQFFLKLSSVTAADTAVYYCASMMVPHYYVMDAWGQGTLVTVSSASTKGPSVFPLAPCSRSTSESTAALGCLVKDYFPEPVTVSWNSGALTSGVHTFPAVLQSSGLYSLSSVVTVPSSSLGTKTYTCNVDHKPSNTKVDKRVGGGGSGGGGSSYELTQPLSVSVALGQTARITCGGDNIGNKDVHWYQQKPGQAPVLVIYRDSNRPSGIPEGFSGSNSGNTATLTISRAQAGDEADYYCQVWDSIWVFGGGTKLTVLPDIQNPDPAVYQLRDSKSSDKSVCLFTDFDSQTQVSQSKDSDVYITDKCVLDMRSMDFKSNSAVAWSQKSDFACANAFQNSIIPEDTFFPSPESS
heavy: EVQLLESGGGLVQPGGSLRLSCAASGFTFSSHAMSWVRQAPGKGLEWVSTITGGGGSIYYADSVKGRFTISRDNSKNTLYLQMNSLRAEDTAVYYCAKNRAGEGYFDYWGQGTLVTVLEDLKNVFPPEVAVFEPSEAEISHTQKATLVCLATGFYPDHVELSWWVNGKEVHSGVCTDPQPLKEQPALQDSRYALSSRLRVSATFWQNPRNHFRCQVQFYGLSENDEWTQDRAKPVTQIVSAEAWGRYGPPCPPCPAPEFLGGPSVFLFPPKPKDTLMISRTPEVTCVVVDVSQEDPEVQFNWYVDGVEVHNAKTKPREEQFNSTYRVVSVLTVLHQDWLNGKEYKCKVSNKGLPSSIEKTISKAKGQPREPQVYTLPPSQEEMTKNQVSLTCLVKGFYPSDIAVEWESNGQPENNYKTTPPVLDSDGSFFLYSRLTVDKSRWQEGNVFSCSVMHEALHNHYTQKSLSLSLG
light: DIVMTQTPLSLSVTPGQPASISCRSSQSLLNSDGNTYLYWYLQKPGQSPQLLIYLVSKLGSGVPNRFSGSGSGTDFTLKISRVEAEDVGVYYCVQGTHDPWTFGGGTKVEIKRTVAAPSVFIFPPSDEQLKSGTASVVCLLNNFYPREAKVQWKVDNALQSGNSQESVTEQDSKDSTYSLSSTLTLSKADYEKHKVYACEVTHQGLSSPVTKSFNRGEC
notes: Light-heavy crossed chimeric Fab; first chain is T4-HC fused to U6-LC; T4 = WBP3162-1.146.19-z12; also called T4U6 antibody pair in G26R format
Take B4: the EC50 in assay [5] stood at 5.91 nM; in assay [6] it was 4.78 nM.

The values above are taken from patent US20240124586A1 (WUXI BIOLOGICS IRELAND, published 2024).
